Among the data in paper doi:10.1101/2024.10.11.617910 are limit of detection (LoD) values, retold here.

One experiment deals with beta-amyloid 42 peptide (UniProt P05067). The experiment is described as follows: SiMoA.
The target in experiment [1] is pyroglutamate beta-amyloid peptide (pGlu3-Aβ). In words: SiMoA.

As for Aducanumab (antibody), the limit of detection (LoD) is 200 pM with beta-amyloid 42 peptide and 56 pM in experiment [1].

As to Donanemab (antibody), in experiment [1], the limit of detection (LoD) came to 5 pM.
